Experimental data from patent US20240083999A1 (TRUSTEES OF TUFTS COLLEGE, published 2024).

What was measured:
[1] = biological target: T1, human interleukin 6 (hIL-6) (human, UniProt P05231 30-212); assay: cell-based or functional assay
[2] = biological target: T2, mouse interleukin 6 (mIL-6) (mouse, UniProt P08505 25-211); assay: told from an in vivo STAT3 phosphorylation Western blot (FIG. 7), not a direct binding assay
T2 construct: the whole entry is named; also called mouse IL-6; mouse IL6
T2 sequence: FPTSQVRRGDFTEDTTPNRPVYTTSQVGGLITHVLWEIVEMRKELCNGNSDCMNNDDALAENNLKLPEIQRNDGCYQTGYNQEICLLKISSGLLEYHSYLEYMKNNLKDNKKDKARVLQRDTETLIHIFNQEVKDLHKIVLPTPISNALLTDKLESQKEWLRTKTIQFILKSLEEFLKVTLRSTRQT
Protocol: Experiments were conducted to determine whether the representative anti-hIL-6 VHH antibody cross-reacted with mouse IL-6 in vivo. In this experiment, one group of C57BL/6 mice was injected intraperitoneally with 1 μg of mouse IL-6 (mIL-6) in PBS; another group of C57BL/6 mice was injected with 1 μg of mouse IL-6 (mIL-6) plus 0.4 μg anti-hIL-6 VHH antibody. The animals were euthanized 30 minutes post-injection; their livers were isolated; and protein was extracted. Western blot analyses were carried out to assess the phosphorylation of STAT3 using P-STAT3 Y705 antibody (1:1,000 dilution) and STAT3 antibody (1:2,000 dilution), (Cell Signaling Technology (CST), Danvers, MA). The results of the Western blot analysis to assess the cross-reactivity of the anti-hIL-6 VHH antibody in mIL-6-induced hepatic STAT activation are shown in FIG. 7.

[3] = biological target: T1, human interleukin 6 (hIL-6); assay: dilution ELISA, plate-coated hIL-6
From the text: Based on sequence analysis, five clonally-independent families of the anti-hIL-6 VHHs, i.e., having sequence homology derived from independent B cell origins, were obtained. One family represented the majority of VHH family members that strongly bound to hIL-6 as determined by ELISA; therefore, multiple variants of this family were also sequenced. The anti-hIL-6 VHH coding DNA of selected VHHs was re-cloned into E. coli expression vectors and the anti-hIL-6 VHH proteins were expressed and purified using standard methods. The purified anti-hIL-6 VHHs were subjected to dilution ELISA analysis to assess their apparent affinities for binding to hIL-6. […] (See, e.g., Mukherjee, J., et al., 2012 PLoS ONE, 7, e299411). The EC₅₀ value of JYK-D12 for binding hTL-6 as determined by ELISA was about 0.4 nM.
Maxisorp ELISA plates (Nunc; Thermo Fisher USA) coated with recombinantly produced hIL-6 protein (0.5-5 μg/ml) overnight at 4° C. were used for immuno-binding assays (ELISA). Plates were washed 3 times with 1×PBS+0.1% Tween, followed by washing 3 times with 1×PBS. Washed plates were blocked (4-5% non-fat dry milk in 1×PBS+0.1% Tween) for 1 hour at room temperature (RT) with rocking. Serially diluted (1:5) hIL-6 VHH binding molecules targeting hIL-6, diluted in blocking solution, were incubated for 1 hour at RT with rocking and washed as above. […]

B1: hIL-6-binding VHH JYK-A9 (Trx/JYK-A9/E) (VHH, not shown: large carriers)
VHH: QVQLVESGGGLVQAGDSLTLSCAASGRPFSSFAMGWFRQAPGKEREFVAAITWSRGTTHYADSVKGRFTISGDNAKNTVFLQMNSLKPEDTAVYYCAAADGWKVVSTASPAYDYWGQGTQVTVSS
[1]
  complete neutralization, 7TD1 cell proliferation (neutralization) assay: 2 µg/mL

B2: JYK-D12/JYK-D12 homodimer (VHH)
chain: QVQLVESGGGLVQPGGSLGLSCAASGFTLAYYGIGWFRQAPGKEREGVACISSSDLSTYYADSVKGRFTISRDNAKDTVYLQMNSLKPEDTAVYYCAAGTWDLKFGYSRSNCVRSYEYDYWGQGTQVTVSSGGGGSGGGGSGGGGSQVQLVESGGGLVQPGGSLGLSCAASGFTLAYYGIGWFRQAPGKEREGVACISSSDLSTYYADSVKGRFTISRDNAKDTVYLQMNSLKPEDTAVYYCAAGTWDLKFGYSRSNCVRSYEYDYWGQGTQVTVSS
notes: One polypeptide with two JYK-D12 units; also called VCR-108
[1]
  effective dose against Tocilizumab, in vivo neutralization assay: 1000 fold
[2]
  binding result: binds

B3: hIL-6-binding VHH JYK-D12 (Trx/JYK-D12/E) (VHH)
VHH: QLQLVESGGGLVQPGGSLGLSCAASGFTLAYYGIGWFRQAPGKEREGVACISSSDLSTYYADSVKGRFTISRDNAKDTVYLQMNSLKPEDTAVYYCAAGTWDLKFGYSRSNCVRSYEYDYWGQGTQVTVSS
notes: Expressed in E. coli as Trx/VHH/E fusion; also called JYK-D12 sh.ab1; expression vector JYR-3; not shown: Trx fusion partner of the construct Trx/JYK-D12/E
[1]
  ED50, 7TD1 cell proliferation (neutralization) assay: < 0.3 ng/mL
  complete neutralization, 7TD1 cell proliferation (neutralization) assay: 0.0009 µg/mL
[3]
  EC50: ~0.4 nM

B4: hIL-6-binding VHH JYK-H9 (Trx/JYK-H9/E) (VHH, not shown: large carriers)
VHH: QLQLVETGGGLVQPGGSLRLSCAASGFTLDYYAIGWFRQAPGKEREGVSCLSSSDRSTYYVDSVKGRFTISRDDDKNTAYLQMNSLKPEDTATYYCAAGTWDLKWGYNISACVGSYEYDYWGQGTQVTVSS
[1]
  complete neutralization, 7TD1 cell proliferation (neutralization) assay: 0.0027 µg/mL

B5: hIL-6-binding VHH JYK-A1 (Trx/JYK-A1/E) (VHH, not shown: large carriers)
VHH: QLQLAETGGGLVQPGGSLRLSCAASGFTLDYYAVGWFRQAPGKEREGISCISSSDLKTYYADSVKGRFTISRDYAKSTVSLQMNSLKPEDTGVYYCAAGTWDLKFGYNISACVGSYEYDYWDQGTQVTVSS
[1]
  complete neutralization, 7TD1 cell proliferation (neutralization) assay: 0.0247 µg/mL
